Assay results: US20250295687A1, “TREM COMPOSITIONS AND METHODS OF USE FOR TREATING PROLIFERATIVE DISORDERS” (Flagship Pioneering Innovations VI, LLC, priority 2022, published 2025)

Columns and labels:
[1] = system: nonsense mutation in TP53 (R196X; Arg→TGA) in Calu-6 lung carcinoma cells; assay: Western blot of full-length p53 after PTC readthrough in Calu-6 cells (Example 6); assay type: cell-based; conditions: for PTC suppression / production of full-length p53 protein: 48 hours, Western blotting (FIGS. 1-3)
Description: Calu-6 is a lung cancer cell line known to harbor a nonsense mutation in TP53 (R196X; Arg→TGA) that results in a premature termination codon (PTC). To test PTC readthrough of the TREM, cells were treated with Arg-TGA, Ser-TGA, or Ser-TAG TREMs or with known translational read-through inducing drugs (RIDs).
(§1) To monitor the ability of the TREMs to readthrough the PTC mutation, the expression of TP53 was assessed by Western blotting 48 hours post-TREM delivery into the cells. Cells were washed once with phosphate buffered saline (PBS) and lysed with 100 uL of RIPA buffer (50 mM Tris, pH 8.0, 150 mM NaCl, 1% Nonidet-P40 (NP-40), 0.5% Deoxycholate, 0.1% sodium dodecyl sulfate (SDS)) supplemented with protease inhibitor, for 30 min at 4° C. The protein extracts were then centrifuged at 21,000 g for 15 min and the supernatant was transferred into clean tubes. Protein concentration was determined using a BCA Protein Assay Kit according to the manufacturer's instructions. 20 μg of total protein were loaded into an SDS-PAGE gel and transferred onto nitrocellulose membranes after electrophoresis. The membranes were probed with anti-p53, anti-p21, and anti-β-tubulin antibodies.

[2] = system: p21 (downstream transcriptional target of p53) in Calu-6 cells; assay: Western blot of p21 protein levels in Calu-6 cells (p53 functional rescue); assay type: cell-based
Description: Calu-6 is a lung cancer cell line known to harbor a nonsense mutation in TP53 (R196X; Arg→TGA) that results in a premature termination codon (PTC). To test PTC readthrough of the TREM, cells were treated with Arg-TGA, Ser-TGA, or Ser-TAG TREMs or with known translational read-through inducing drugs (RIDs). Briefly, 6×10^5 cells were seeded into a 6-well plate and transfected with […] of TREM in 15 uL of RNAiMAX+800 uL OptiMEM; 0.5 or 5 mg/mL G418, an aminoglycoside antibiotic; or Ataluren, a TRID that is approved for the treatment of DMD in Europe at the reported maximally effective dose of 10 uM.
as §1
To determine whether the rescued p53 protein was functional, cellular p21 protein levels were measured (FIG. 4). p21 is a downstream transcriptional target and well-established biomarker of p53 activity.

[3] = system: NanoLuc with a TGA PTC; assay: In vivo PTC readthrough of NanoLuc TGA reporter by hydrodynamic gene delivery (FIG. 5B); parameters: species or system mouse
Description: Hydrodynamic gene delivery (HGD) is a simple, fast, safe, and effective method for delivering transgenes in rodent models. A set of plasmids expressing both an eGFP-Luc-TGA reporter and a TREM were designed. To evaluate tolerability and determine optimal plasmid concentration for maximum TREM delivery to the liver, the eGFP-WT Luc plasmid was administered to adult CD-1 mice via tail vein hydrodynamic injection at three doses: 10 μg, 30 μg, and 50 μg. […] Next, 50 μg of DNA in saline […] was administered to mice via tail vein hydrodynamic injection to assess target engagement and PTC readthrough using either 1) eGFP-Nluc TGA reporter plasmid (PL-854), or 2) eGFP-Nluc WT reporter (PL1202), or 3) all-in-one plasmid eGFP-Nluc-TGA reporter with S-TAG (PL-1216), or 4) all-in-one plasmid eGFP-Nluc-TGA reporter with R-TGA (PL-1215).

Molecule: O=C(O)c1cccc(-c2noc(-c3ccccc3F)n2)c1 [Ataluren, reference compound]
- percentage of full-length p53 out of the total p53 protein ([1]; Calu-6 cells treated with 10 μM): about 0%
- PTC suppression / production of full-length p53 protein ([1]; Calu-6 cells): ineffective

Molecule: CN[C@@H]1[C@@H](O)[C@@H](O[C@@H]2[C@@H](O)[C@H](O[C@H]3O[C@H]([C@@H](C)O)[C@@H](O)[C@H](O)[C@H]3N)[C@@H](N)C[C@H]2N)OC[C@]1(C)O [G418, reference compound]
- rescue of TP53 mRNA levels / expression of truncated p53 protein ([1]; Calu-6 cells): more effective in rescuing mRNA levels
- percentage of full-length p53 out of the total p53 protein ([1]; Calu-6 cells treated with 0.5 mg/mL): about 30%
- percentage of full-length p53 out of the total p53 protein ([1]; Calu-6 cells treated with 5 mg/mL): about 30%
- PTC suppression / production of full-length p53 protein ([1]; Calu-6 cells): marginally increased

B1: Arg-TGA: arginine non-cognate TREM: sequence of ARG-UCU-TREM body but with anticodon UCA instead of UCU (nucleic acid)
chain: GGCUCCGUGGCGCAAUGGAUAGCGCAUUGGACUUCAAAUUCAAAGGUUCCGGGUUCGAGUCCCGGCGGAGUCGCCA
modifications: listed as RNA, chemistry not fully specified
- percentage of full-length p53 of the total p53 protein ([1]; Calu-6 cells treated with 100 nM): about 95%
- full-length p53 levels increase relative to cells treated with SEQ ID NO:623 ([1]; Calu-6 cells, 100 nM TREM, vs 100 nM SEQ ID NO:623): about 55 fold
- full-length p53 levels increase relative to cells treated with SEQ ID NO:625 ([1]; Calu-6 cells, 100 nM TREM, vs 100 nM SEQ ID NO:625): about 11 fold
- full-length p53 levels increase relative to cells treated with Ataluren ([1]; Calu-6 cells, 100 nM TREM, vs 10 μM Ataluren): about 55 fold
- full-length p53 levels increase relative to cells treated with 0.5 mg/mL G418 ([1]; Calu-6 cells, 100 nM TREM, vs 0.5 mg/mL G418): about 55 fold
- full-length p53 levels increase relative to cells treated with 5 mg/mL G418 ([1]; Calu-6 cells, 100 nM TREM, vs 5 mg/mL G418): about 14 fold
- full-length p53 levels increase relative to mock-transfected cells ([1]; Calu-6 cells, 100 nM TREM, vs mock-transfected cells): about 55 fold
- full-length p53 levels increase relative to untreated cells ([1]; Calu-6 cells, 100 nM TREM, vs untreated cells): about 55 fold
- total p53 that was full length (FIG. 3) ([1]; Calu-6 cells, 48 hours post-TREM delivery, Western blotting): about 90%
- PTC suppression / production of full-length p53 protein ([1]; Calu-6 cells): robustly induce PTC suppression
- p21 levels increase relative to cells treated with SEQ ID NO:623 ([2]; 100 nM TREM, vs 100 nM SEQ ID NO:623): about 60 fold
- p21 levels increase relative to cells treated with SEQ ID NO:625 ([2]; 100 nM TREM, vs 100 nM SEQ ID NO:625): about 30 fold
- p21 levels increase relative to cells treated with Ataluren ([2]; 100 nM TREM, vs 10 μM Ataluren): about 60 fold
- p21 levels increase relative to cells treated with 0.5 mg/mL G418 ([2]; 100 nM TREM, vs 0.5 mg/mL G418): about 60 fold
- p21 levels increase relative to cells treated with 5 mg/mL G418 ([2]; 100 nM TREM, vs 5 mg/mL G418): about 60 fold
- p21 levels increase relative to mock-transfected cells ([2]; 100 nM TREM, vs mock-transfected cells): about 60 fold
- p21 levels increase relative to untreated cells ([2]; 100 nM TREM, vs untreated cells): about 60 fold
- rescue of cellular p21 protein levels (FIG. 4) ([2]; Western blotting): able to rescue p21 protein levels
- increase in luciferase signal compared to controls ([3]; mice, 50 μg of DNA in saline, tail vein hydrodynamic injection, all-in-one plasmid eGFP-Nluc-TGA reporter (FIG. 5B)): ~1000 fold
- total flux signal in the liver ([3]; mouse, hydrodynamic delivery of plasmid (FIG. 5B)): about 2×10^9 p/s
